Results: the nanobody polyreactivity screen of Harvey et al. (2022)

test: yeast display, Sf9 membrane polyspecificity reagent, FACS + sequencing; frameworks hold sequencing errors
Method in brief: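 A nanobody's polyreactivity label depends on the gate it was sorted from. Yeast display cells were stained with 10% biotinylated, detergent-solubilized Sf9 membrane reagent for 1 hour at 4 °C, enriched on streptavidin microbeads and sorted by FACS. The low and high (top ~1%) gates were set on anti-HA fluorescence for expression and streptavidin fluorescence for reagent binding.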

Sequence | polyreactivity (PSR sort gate)
QVQLVESRGGLVQAGGSLRLSCAASGITLYGYAMGWYRQAPGKERELVAAISRSGSSTYYADSVKGRFTISRDNAKNTVYVQMNSLKPEDTAVYYCNSEKYYLAYLLPFNYWGQGTQVTVSS | high polyreactivity
QVQLVESRGGLVQAGGSLRLSCAASGLTFRYYAMGWYRQAPGKERELVAAITASVGSTYYADSVKGRFTISRDNAKNTVYLQMNSLKPEDTAVYYCAADSEQDNLRYYRWVWYYYWGQGTQVTVSS | low polyreactivity
QVQLVESRGGLVQAGGSLRLSCAASGMTFSDYPMGLYRQAPGKEREFVSAITSGGRTNYADSVKGRFTISRDNAKNTVYLQMNSLKPEDTAVYYCAAVYTYVYYYHYPYYYWGQGTQVTVSS | low polyreactivity
QVQLVESRGGLVQAGGSLRLSCAASGRIFGSYAMGWYRQAPGKERVLVAAISYSGGSTYYADSVKGRFTISRDNAKNTVYLQMNSLKPEDTAVYYSNVDRYYGYFSVRGGYWGQGTQVTVSS | low polyreactivity
QVQLVESRGGLVQAGGSLRLSCAASGRIFGYYAMGWYRQAPGKERELVATIRGGGSTNYADSVKGRFTISRDNAKNTVYLQMNSLKPEDTAVYYCAKPGAKWRGFDYWGQGTQVTVSS | low polyreactivity
QVQLVESRGGLVQAGGSLRLSCAASGRIFSNNAMGCYRQAPGKERELVAAITASSGSTYYADSVKGRFTISRDNAKNTVYLQMNSLKPEDTAVYYCAATLRWGFRWYFGFDYWGQGTQLTVSS | high polyreactivity
QVQLVESRGGLVQAGGSLRLSCAASGRILPYHVMGWYSQAPGKERELVAAISSGGTTDYADSVKGRFTISRDNANNTVYLQMNSLKPEDTAVYYCAATYDYWTWGYDYWGQGTQVTVSS | low polyreactivity
QVQLVESRGGLVQAGGSLRLSCAASGRTFHRNAMGWYRQPPGKERELVAAITGDGRTNYADSVKGRFTISRDNAKNTVYLQMNSLKPVDTAVYYCAARFSYRSYDYWGQGTQVTVSS | low polyreactivity
QVQLVESRGGLVQAGGSLRLSCAASGRTFSGNAMGWYRQAPGKERELVAAITSVGTTNYADSVKGRFTISRDNANNTVYLQMNSLKPEHTAVYYCAADPPSDYYKYDYWGHGTQVTVSS | low polyreactivity
QVQLVESRGGLVQAGGSLRLSCAASGRTIYPYTMGCYRQAPGKERELVAAISSSGTRTYYADSVKGRFTISRDIAKNTVYLQMNSLKPEDTAVYDCATRRPGSFGYWGQGTQVTVSS | high polyreactivity
QVQLVESRGGLVQAGGSLRLSCAASGSIFDGYAMGWYRQAPGKERELVAAITWSGGRTYYADSVKGRFTISRDNAKNTVYLQMNSLKPEDTAVYYCNAVTGSWRYDYWGQGTQVTVSS | high polyreactivity
QVQLVESRGGLVQAGGSLRLSCAASGSIFLYAMGWYRQEPGKQRELVAAISGGGRTNYADSVKGRFTISRDNAKNTVYLQMNSMKPEDTAVYYCAADPVYWYSPMDYWGQGTQVTVSS | low polyreactivity
QVQLVESRGGLVQAGGSLRLSCAASGSIFPYYAMGWYRQAPGKERELVAAISLSGVSTTYADSVKGRFTISRDNAKNTVYLQMNSLKPVDTAVYYCAAKSFWSRYVGGYYWGQGTQVTVSS | high polyreactivity
QVQLVESRGGLVQAGGSLRLSCAASGSIFRSYAMGWYRQAPGKERELVAAIRGSDGNTYYADSVKGRFTISRDNPKNTVYLQMNSLKPEDTAVYYCAADGCLVDDSATRLYYWGQGTQVTVSS | high polyreactivity
QVQLVESRGGLVQAGGSLRLSCAASGSIFSFYAMGWYRQAPGKERELVATITSGGSTYYADSVKGRFSISRDNAKNTVYLQMNSLKPEDTAVYYCAARGNFGANPGRKHGFDYWGQGTQVTVSS | high polyreactivity
QVQLVESRGGLVQAGGSLRLSCAASGSIFYRYARGWYRQAPGKERELVAAITYSGGRTYYADSVKGRFTISRDNAKNTVYLQMNSLKPEDTAVYYCAAEKQSYGSPQGYDYWGQGTQVTVSS | low polyreactivity
QVQLVESRGGLVQAGGSLRLSCAASGSTFFYNAMGWYRQAPGKEREFVAAITNGVITNYADSVKGRFTISRDNAKNTVYLQMNSLKPEDTAVYYCAALRWSPRSRYQYNYWGQGTQVTVSS | high polyreactivity
QVQLVESRGGLVQAGGSLRLSCAASGSTFGPYTMGWYRQAPGKERELDAAISWNGGRTSYADSVKGRFTLSRDNAKNTVYLQKNSLKPEDTAGYYCAAGYFVGIYKRFYWGQGTQVTVSS | high polyreactivity
QVQLVESRGGLVQAGGSLRLSCAASGSTFPGYAMGCYRQAPGKERELVAAISRSGGSTSYADSVKGRFTISRDKAQNTVYLQLHSLKPEDTEVYYCAAQVQGTSRAKQRGGIGELDYWGQGTQVTVSS | low polyreactivity
QVQLVESRGGLVQAGGSLRLSCAASGSTFSPYVMGWYREAPGKERELFAAIRGRGGNTYYADSVKGRFTISRDNAKNTVYLQMNSLKPEDSAVYYCAAQSFAQYGWRYGDWGQVTQVTVSS | high polyreactivity
QVQLVESRGGLVQAGGSLRLSCAASGYIFGDYAKGWYRQAPGKERELVAAITQTGGNTYYADSVKGRFTISRDNAKKTVYLQMNSLKPEDTAVYYCAAPALGNYFYGYDYWGQGTQVTVSS | low polyreactivity
QVQLVESRGGLVQAGGSLRLSCAASGYTFQRYAMGCYRQAPGKEREMVAAISWSSGTTYYADSVKGRFTISRDNAKNTVYLQMNSLKPEDTAVYYCAAAGRQSGGRFYYWGQGTQVTVSS | high polyreactivity

Sequence | polyreactivity (PSR sort gate)
QVQLVESRGGLVQAGGSLRLSCAASVGTFGLNAMGWYSQAPGKERELVADIDGRGGSTYYADSVKGRFTISRDNAKNTFDLQMNSLKPEDTAVYYSAARAPFLSVPSELDYWGQGTQVTVSS | low polyreactivity
QVQLVESRGGLVQAGGSLRLSCDASGSTIFENVMGWYRQAPGKEREFVAAINTSGGSTYYADSVKGRFTISRDNAKNTVYLQMNSLKPEDTAVYYCARDSYWEMDYWGQGTQVTVSS | low polyreactivity
QVQLVESRGGLVQAGGSLRLSCPASGSTFVSNAMGWYRQAPGKERELVAAISKSGGSTYYADSVKGRFTISRDNAKNTVYLQMISLKPEDTAVYYCAKYNAKSFYGQYDYWGQGTQVTVSS | high polyreactivity
QVQLVESRGGLVQAGGSLRLSFAASGFTFGSYSMVWYRQAPGKERELVADITRRGDNTYYADSVKGRFTISRDNAKNTVYLQMNSLKPEDSAVYYCNAAKGGRYPDYDYWGQGTQVTVSS | high polyreactivity
QVQLVESRGGLVQAGGSLRLSFAASGSTFIKNAMGWYRQAPGKEWELVAAITSGGSRSYADSVKGRFTISRDNAKNTVYLQMNSLKPEDTAVYYCATDHDIGYNFYRYDYWGQGTQVTVSS | low polyreactivity
QVQLVESRGGLVQAGGSLRLSSASSGSIFDIYEMGRYRQAPGKERELLASITWSRGSTYYADSVKGRFTISRDNAKNSVYLQINCLKPEDTAVYYCGTDKLFGRTVRMDYWGQGTQVTVSS | low polyreactivity
QVQLVESRGGLVQAGGSLRLTCAASGYTFVYNGMGWYRQAPGKERELVAAFRRRTGTTYYADSVKGRFTISRDNAKNTVYLQMNSLKPEDSSVYYSAATGFWCYDWGQGSQVTVSS | high polyreactivity
QVQLVESRGGLVQAGGSLRVSCAASGRTFGVNAMGWYRQAPGKERELVAAISTSGGSTYYADSVKGRFTISRDNAKNTVYLQMNSLIPEDTAVYYCNTGRGRYVHGRDYDYWGQGTQVTVSS | low polyreactivity
QVQLVESRGGLVQARGSLRLSSAASGFIFNANAMGCYRPAPGKESELVAAIDDGDSTYADSVKGRFTISRDNAKNTVYLQMNSLKPEDTAVYYCAVDGGEFSSYGYWGEGTQVTVSS | low polyreactivity
QVQLVESRGGSVQAGGSLRLSCAASGNIFYYAMGWYRQAPGKERELVAAISASGGSSYYADSVKGRFTISRDNAKNTVYLQMNSLKPEDTAVYYCKAVFYRGPGAQGDPRRRSDYWGQGTQVTVSS | high polyreactivity
QVQLVESRGVLVQAGGSVRVSCAASGSTFTFNAMGWYRQAPGKVRELVADITSGGRTNYADSVKGRFTISRDNAKNTVYLQMNSLKPEDTAVYYCAARWWAHEYPGYDSWGQGTQVTVSS | low polyreactivity
QVQLVESRRGLVQAGGSLRLSCAASGRISNEYAMVWSRQAPGKERELVATITFSGGDTYYADSVKGRFTISRHNAKNTVYLHKNSLKPEDSAVYYCAASKWRSYCGGWWRLQFDYWGQGTQVTVSS | low polyreactivity
QVQLVESSGGLVQAGGSLRLSCAASGFNFKRYAMGWSRQAPGKEREMVAAINSGGSTNYADSVKGRFTISRDNAKNTVYLQMNSLKPEDTAVYYCAASTSRYYWYALRDYWGQGTQVTVSS | high polyreactivity
QVQLVESSGGLVQAGGSLRLSCAASGITFYYYAMGWYRQAPGKERELVAVITGNGGRTYYADSVKGRFTISRDNAKNTVYLQMNSLKPEDTAVYYCAALYDGIYDSWGQGTQVTVSS | high polyreactivity
QVQLVESVAGLVQAGGSLRLSCAASGSTFTGNAMGWYRQAPRKERELVAAITKGGSRTYYADSVKGRFTISRDNAKNTVYLQMNSLKPEDTAVYYCAAIERYSYLLYPKFDYWGQGTQVTVSS | high polyreactivity
QVQLVESVGALVQAGGSLRLSCAASGSIFGSNAMGGYRQAPGKERELVAAITWSGTSTYYADSVKGRFTISRDNAKNTVYLQMNSLKPEDTAVYYCARGGYVRAARLVIPYYYWGQGTQVTVSS | low polyreactivity
QVQLVESVGCLVQARGSLRLSSAASGLIFPKYAMGWYRPAHGKERELVAAISSSGGSTYYADSVMGRFTISRVNAKNTVYLQMNSLKPEDTAVYYCAAKRFTTVTGYGYWGQGTQVTVSS | high polyreactivity
QVQLVESVGGIVQAGGSLRLSCAASGITLYWYAMGWYRQAPGKERELVAAISRRGGTTYYADSVKGRFTISRDNAKINVFLQMHSLNPEDTAVYYCAKAPDTQTSWSRQEGTYWGQGTQVTVSS | low polyreactivity
QVQLVESVGGLAQSRGSLRLSCAASGRTFFPNAMGWYRQAPGKERELVAAITNGDSTHYADSVKRRFTISRDNAKNTVYLQMNSLKPEDTADYYCAAEDHYEGYGGYYWGQVTQVTVSS | low polyreactivity
QVQLVESVGGLDQAGGSLRLSCAASGSTFSLYTIGWYRQAPGKERELVASISRGGGSTYYADSVKGRFTISRDNAKNTVYLQMNSLKPEDTAVYYCASGTLYFYSHNPEDDFDYWGQGTQVTVSS | high polyreactivity
QVQLVESVGGLDQAGGSLRLSCAASGYTFSLNAMGWYRQAPGKEREFVATIRSSGARTSYADSVKGRFTISRDNAKNTVYLQMNSLKPEDTAVYYCAARYYNSYRYAMGYWGQGTQVTVSS | high polyreactivity
